# In US12173061B2, “Compositions and methods for treatment of chronic lung diseases” (Board of Regents, The University of Texas System, priority 2021, dated 2024):
# B1: A5 protein: recombinant full length human ALG5 protein (SEQ ID NO: 9) (protein, listed as Homo sapiens)
# chain: MAPLLLQLAVLGAALAAAALVLISIVAFTTATKMPALHRHEEEKFFLNAKGQKETLPSIWDSPTKQLSVVVPSYNEEKRLPVMMDEALSYLEKRQKRDPAFTYEVIVVDDGSKDQTSKVAFKYCQKYGSDKVRVITLVKNRGKGGAIRMGIFSSRGEKILMADADGATKFPDVEKLEKGLNDLQPWPNQMAIACGSRAHLEKESIAQRSYFRTLLMYGFHFLVWFLCVKGIRDTQCGFKLFTREAASRTFSSLHVERWAFDVELLYIAQFFKIPIAEIAVNWTEIEGSKLVPFWSWLQMGKDLLFIRLRYLTGAWRLEQTRKMN
# B2: U5A protein: recombinant full length human UNC5A protein (SEQ ID NO: 5) (protein, listed as Homo sapiens)
# chain: MAVRPGLWPALLGIVLAAWLRGSGAQQSATVANPVPGANPDLLPHFLVEPEDVYIVKNKPVLLVCKAVPATQIFFKCNGEWVRQVDHVIERSTDGSSGLPTMEVRINVSRQQVEKVFGLEEYWCQCVAWSSSGTTKSQKAYIRIAYLRKNFEQEPLAKEVSLEQGIVLPCRPPEGIPPAEVEWLRNEDLVDPSLDPNVYITREHSLVVRQARLADTANYTCVAKNIVARRRSASAAVIVYVDGSWSPWSKWSACGLDCTHWRSRECSDPAPRNGGEECQGTDLDTRNCTSDLCVHTASGPEDVALYVGLIAVAVCLVLLLLVLILVYCRKKEGLDSDVADSSILTSGFQPVSIKPSKADNPHLLTIQPDLSTTTTTYQGSLCPRQDGPSPKFQLTNGHLLSPLGGGRHTLHHSSPTSEAEEFVSRLSTQNYFRSLPRGTSNMTYGTFNFLGGRLMIPNTGISLLIPPDAIPRGKIYEIYLTLHKPEDVRLPLAGCQTLLSPIVSCGPPGVLLTRPVILAMDHCGEPSPDSWSLRLKKQSCEGSWEDVLHLGEEAPSHLYYCQLEASACYVFTEQLGRFALVGEALSVAAAKRLKLLLFAPVACTSLEYNIRVYCLHDTHDALKEVVQLEKQLGGQLIQEPRVLHFKDSYHNLRLSIHDVPSSLWKSKLLVSYQEIPFYHIWNGTQRYLHCTFTLERVSPSTSDLACKLWVWQVEGDGQSFSINFNITKDTRFAELLALESEAGVPALVGPSAFKIPFLIRQKIISSLDPPCRRGADWRTLAQKLHLDSHLSFFASKPSPTAMILNLWEARHFPNGNLSQLAAAVAGLGQPDAGLFTVSEAEC
# B3: A5^ECD: recombinant extracellular domain of A5 (ECD of hALG5) (protein, listed as Homo sapiens)
# chain: MTTATKMPALHRHEEEKFFLNAKGQKETLPSIWDSPTKQLSVVVPSYNEEKRLPVMMDEALSYLEKRQKADPAFTYEVIVVDDGSKDQTSKVAFKYCQKYGSDKVRVITLVKNRGKGGAIRMGIFSSRGEKILMADADGATKFPDVEKLEKGLNDLQPWPNQMAIACGSRAHLEKESIAQRSYFRTLLMYGFHFLVWFLCVKGIRDTQCGFKLFTREAASRTFSSLHVERWAFDVELLYIAQFFKIPIAEIAVNWTEIEGSKLVPFWSWLQMGKDLLFIRLRYLTGAWRLEQTRKMN
# Tested on: BLM-induced pulmonary fibrosis
# Test: BLM-induced established pulmonary fibrosis in mice, treatment d14-d21
# Format: in vivo
# Settings: for BLM-induced pulmonary fibrosis (overall): mice, 1.0 U/kg BLM IT, protein 7.5 mg/kg/d IP daily for 7 days starting d14; for BLM-induced pulmonary fibrosis (overall) / lung compliance / lung elastance: d21; for BLM-induced fibrogenic marker proteins (Col1, FN, TN-C, α-SMA) in whole lung homogenates / body weight / collagen and other extracellular matrix deposits (Trichrome staining of lung sections) / fibrogenic marker transcripts in whole lung homogenates / lung weight / lung compliance / lung elastance / whole lung total hydroxyproline: protein 7.5 mg/kg/d IP, 7 days starting d14 after BLM; for lung compliance / lung elastance: flexiVent; for whole lung total hydroxyproline: lung homogenates
# Procedure: FIGS. 9A-9O. M9 peptide and protein mitigated BLM-induced pulmonary fibrosis. Mice exposed to saline or 1.0 U/kg BLM by intratracheal instillation were treated with or without M9 peptide HGHVDPVKTPKI (SEQ ID NO: 4) (10 mg/kg/d) and M9 protein (SEQ ID NO: 1) 7.5 mg/kg/d) via IP injection daily for 7 days starting d14 after BLM injury. FIG. 9A: Representative micro-CT images at d21 after BLM exposure. FIG. 9B: Lung volumes were measured by quantitative-CT renditions. Lung compliance (FIG. 9C) and elastance (FIG. 9D) were measured using a flexiVent system. Lung weights (FIG. 9E) and body weights (FIG. 9F) are presented as bar graphs. Lung homogenates were tested for hydroxyproline (FIG. 9G), soluble collagen (FIG. 9H), pro-fibrogenic marker proteins (FIG. 9I) and mRNAs (FIG. 9J). Bars indicate mean±SD. Statistical significance (*P<0.05, **P<0.01, ***P<0.001 and ****P<0.0001) was assessed by one-way ANOVA with Turkey's multiple comparison. fLfs isolated from IPF lungs treated with PBS or recombinant full length M9 (rM9^FL) protein (2 μg/ml) for 48 h in vitro were tested for pro-fibrogenic proteins (FIG. 9L). fLfs (from IPF lungs) treated with PBS or extracellular domain of rM9^FL protein (rM9^ECD) as in FIG. 9L were tested for pro-fibrogenic proteins (FIG. 9N). The survival the mice treated with rM9^FL is shown FIG. 9M.
# FIGS. 10A-10K. UNC5A (“U5”) peptide/protein mitigated BLM-induced pulmonary fibrosis. Mice exposed to saline or 1.0 U/kg BLM by intratracheal instillation were treated with or without U5 peptide (50 residues, SEQ ID NO: 7) (10 mg/kg/d) and full length U5 protein (SEQ ID NO: 5) (7.5 mg/kg/d) via IP injection daily for 7 days starting d14 after BLM injury. FIG. 10A: Representative micro-CT images at d21 after BLM exposure. FIG. 10B: Lung volumes were measured by quantitative-CT renditions. Lung compliance (FIG. 10C) and elastance (FIG. 10D) were measured using a flexiVent system. Lung weights (FIG. 10E) and body weights (FIG. 10F) are presented as bar graphs. Lung homogenates were tested for hydroxyproline (FIG. 10G), soluble collagen (FIG. 10H), pro-fibrogenic marker proteins (FIG. 10I) and mRNAs (FIG. 10J). Bars indicate mean±SD. Statistical significance (*P<0.05, **P<0.01, ***P<0.001 and ****P<0.0001) was assessed by one-way ANOVA with Turkey's multiple comparison.
# FIGS. 11A-11K. ALG5 (“A5”) protein mitigated BLM-induced pulmonary fibrosis. Mice exposed to saline or 1.0 U/kg BLM by intratracheal instillation were treated with or without A5 protein (SEQ ID NO: 9) (7.5 mg/kg/d) via IP injection daily for 7 days starting d14 after BLM injury. FIG. 11A: Representative micro-CT images at d21 after BLM exposure. FIG. 11B: Lung volumes were measured by quantitative-CT renditions. Lung compliance (FIG. 11C) and elastance (FIG. 11D) were measured using a flexiVent system. Lung weights (FIG. 11E) and body weights (FIG. 11F) are presented as bar graphs. Lung homogenates were tested for hydroxyproline (FIG. 11G), soluble collagen (FIG. 11H), pro-fibrogenic marker proteins (FIG. 11I) and mRNAs (FIG. 11J). Bars indicate mean±SD. *P<0.05, **P<0.01, ***P<0.001 and ****P<0.0001 were obtained by one-way ANOVA with Turkey's multiple comparison.
# FIGS. 12A-12E. WT mice with BLM-PF were treated with or without rM9^ECD (1.5 mg/kg) via intratracheal (IT) instillation daily for 7 d starting d 14 after BLM. Survival (FIG. 12A), body weights (FIG. 12B), lung volumes (FIG. 12C) and lung weights (FIG. 12D) were measured on d 21 post-BLM. Lung homogenates were tested for soluble collagen (FIG. 12E).
# FIGS. 13A-13B. FIG. 13A: fLfs (IPF) treated with PBS or M9^mAb (2 μg/ml) or control IgG, tested for pro-fibrogenic proteins (i) and mRNAs (ii). FIG. 13B: WT mice with BLM-PF were left untreated, or intraperitoneal (IP) injected with control IgG or M9^mAb (2.5 mg/kg) daily for 7 d starting 14 d after IT BLM. Body weights (i) and total lung hydroxyproline (ii), and soluble collagen (iii) were measured. […]
Molecule,BLM-induced pulmonary fibrosis (overall),BLM-induced pulmonary fibrosis (overall) (listed as A5^FL),BLM-induced pulmonary fibrosis (overall) (listed as ALG5 (A5) Protein),"BLM-induced fibrogenic marker proteins (Col1, FN, TN-C, α-SMA) in whole lung homogenates",body weight,collagen and other extracellular matrix deposits (Trichrome staining of lung sections),fibrogenic marker transcripts in whole lung homogenates,lung weight,lung compliance,lung elastance,whole lung total hydroxyproline,BLM-induced pulmonary fibrosis (overall) (listed as Full Length U5A Protein),BLM-induced pulmonary fibrosis (overall) (listed as U5a^FL),BLM-induced pulmonary fibrosis (overall) (listed as U5 protein)
B1,mitigated,mitigated,Mitigated,inhibition,improvement,reduction,inhibition,reduction,improved,improved,reduction,–,–,–
B2,–,–,–,inhibition,improvement,reduction,inhibition,reduction,improved,improved,reduction,Mitigated,mitigated,mitigated
B3,mitigated,–,–,–,–,–,–,–,–,–,–,–,–,–
